Consider 1 substance from publication PMC3503143.

For experiment [1], the target named is AbBphP1 holoprotein (bacteriophytochrome 1 of Azospirillum brasilense Sp7, biliverdin-bound) (Azospirillum brasilense Sp7). Nature of the experiment: cross-linking.
For experiment [2] the target is unchanged. Nature of the experiment: SEC. On the technique in general: SEC sorts molecules by how far they enter the pores of the column.

A word on the stoichiometry N: it is the number of molecules, sites or subunits per partner or assembly.

On to “AbBphP1 holoprotein (bacteriophytochrome 1 of Azospirillum brasilense Sp7, biliverdin-bound) (natural protein)”, for which the stoichiometry N in experiment [1] and in experiment [2] was 2 each time.
